By kcat is commonly meant the maximal rate divided by the concentration of active sites. A word on the kcat/Km: it is the turnover number divided by the Michaelis constant.

The values below come from patent US10260060B2, “Genetically modified phenylpyruvate decarboxylase, processes to prepare, and uses thereof” (Dow Global Technologies LLC, priority 2014, dated 2019).

Positions count from the first letter of the chain named. Names and notes keep the numbering of the source.

Series [1] has as its system Azospirillum brasilense phenylpyruvate decarboxylase (AbPPDC). Conditions: Spaepen et al., J. Bacteriol., 2007; cited from earlier work.
Substrate in series [2]: CCCCCCCC(=O)C(=O)O
Kind of series: HTP AbPPDC coupled enzyme assay (ADH6/NADPH), 2-ketoacid decarboxylation kinetics, Q536I. The format is biochemical, Azospirillum brasilense. Conditions: other: pH 6.8, 30° C, 2-ketoacid 0 to 4 mM, Michaelis-Menten equation, mean ± standard error. Here is the method:
(§1) The evaluation of the AbPPDC variants is performed in two steps using the high-throughput enzyme assay described hereinbelow. Initially, all the variants are tested for activity against a single high concentration (2 mM) of 2-KH and 2-KN (as shown in Table 1). Following the initial evaluation, detailed kinetic analysis is performed on a select number of variants to determine the maximal rate (kcat), substrate concentration yielding half maximal rate (K0.5, equivalent of KM for enzymes following Michaelis-Menten kinetics), and the catalytic efficiency of the enzyme (kcat/K0.5) against 2-KO and 2-KN (as shown in Table 2). AbPPDC variants, having higher specificity (higher kcat/K0.5) for 2-KN, will be efficient in producing octanal and chemicals derived from it inside the cells.
(§2) To evaluate the substrate specificity of the wild type AbPPDC and its variants listed in Table 1, genes of all the proteins are expressed in E. coli cells separately and the protein products are isolated from the cells. The gene sequence of the Azospirillum brasilense phenylpyruvate decarboxylase (GenBank: Accession no. L26240) is downloaded from the NCBI database. Codons of 13 additional amino acids that include six (6) histidines (his) are added upstream of the Met-1 codon of the AbPPDC gene sequence. Such a modification allows expression of a Histidine-tagged AbPPDC having 13 additional amino acids on the N-terminus. The additional amino acids are attached as an aid for purifying the protein in a single step using Ni-NTA chromatography. The entire AbPPDC sequence with 13 additional amino acids (SEQ ID 2) is chemically synthesized and then cloned into the pRSFDuet-1 vector (EMD Biosciences) downstream of the T7 polymerase promoter by Synthetic Genomics, Inc. (San Diego, Calif.). The final vector is sequenced by Synthetic Genomics, Inc. before shipping.
(§3) Genes of the AbPPDC variants listed in Table 1 are either chemically synthesized or generated using New England Biolab's Q5 Site-directed Mutagenesis Kit (cat. no. E0554S) and cloned into the pRSFDuet-1 vector. The pRSFDuet-1 vector containing AbPPDC or the AbPPDC variant gene is transformed into E. coli, AbPPDC or its variant, then expressed and eventually purified, as described below.
(§4) A high-throughput AbPPDC coupled enzyme assay is developed for evaluating the substrate specificity of AbPPDC variants. The assay involves reducing the aldehyde produced from AbPPDC mediated 2-ketoacid decarboxylation, using an alcohol dehydrogenase (ADH6, GenBank: Accession No. NP 014051.3). The initial velocities of the AbPPDC catalyzed reactions are determined from the rates of oxidation of reduced nicotinamide adenine dinucleotide phosphate (NADPH) occurring during the ADH6 catalyzed reduction of aldehyde.
(§5) The HTP screening assay involves incubating 2 mM 2-KH or 2 mM 2-KN with 0.5 mM thiamine diphosphate, 0.35 mM NADPH, 4.7 micrograms (μg) of yeast ADH6 (GenBank: Accession No. NP 014051.3) and 0.3 milligrams per milliliter (mg/mL) bovine serum albumin (BSA) in AbPPDC assay buffer (50 mM 3-(N-morpholino)propanesulfonic acid, pH 6.8, containing 2.5 mM magnesium chloride (MgCl2)) at 30° C. The reaction is started by addition at 30° C. of working enzyme stock containing from 0.5 μg to 3.5 μg of AbPPDC variant diluted in AbPPDC assay buffer containing 1 mg/mL BSA. The plate containing the 200 μL of reaction mixture is centrifuged at 2500×g for 15 sec and the absorbance change of the reaction mixture followed spectrophotometrically at 340 nm on a BioTek™ plate reader, pre-equilibrated at 30° C. Initial velocity of the enzyme reaction is calculated using the rate of NADPH consumption at 340 nm and the extinction coefficient of NADPH (6.22 mM^−1 cm^−1). The activity of all the variants is normalized with the amount of enzyme present in the reaction mixture and expressed as nanomoles per minute per milligram (nmol·min^−1·mg^−1). […]

Substrate in series [3]: CCCCCCC(=O)C(=O)O
The description is as above. The class given is biochemical, Azospirillum brasilense. Conditions: other: pH 6.8, 30° C, 2-ketoacid 0 to 4 mM, Michaelis-Menten equation, mean ± standard error. How it is done: as §1, §2, §3, §4, §5

Substrate in series [4]: CCCCCCCC(=O)C(=O)O
Kind of series: HTP AbPPDC coupled enzyme assay (ADH6/NADPH), 2-ketoacid decarboxylation kinetics, F385L. The format is biochemical, Azospirillum brasilense. Conditions: other: pH 6.8, 30° C, 2-ketoacid 0 to 4 mM, Hill equation, mean ± standard error. How it is done:
as §1, §2, §3, §4, §5

Substrate in series [5]: CCCCCCC(=O)C(=O)O
The description is as above. The class given is biochemical, Azospirillum brasilense. Conditions: other: pH 6.8, 30° C, 2-ketoacid 0 to 4 mM, Hill equation, mean ± standard error. How it is done: as §1, §2, §3, §4, §5

Substrate in series [6]: CCCCCCCC(=O)C(=O)O
Kind of series: HTP AbPPDC coupled enzyme assay (ADH6/NADPH), 2-ketoacid decarboxylation kinetics, wild type. The format is biochemical, Azospirillum brasilense. Conditions: other: pH 6.8, 30° C, 2-ketoacid 0 to 4 mM, Hill equation, mean ± standard error. How it is done: as §1, §2, §4
(§6) The HTP screening assay involves incubating 2 mM 2-KH or 2 mM 2-KN with 0.5 mM thiamine diphosphate, 0.35 mM NADPH, 4.7 micrograms (μg) of yeast ADH6 (GenBank: Accession No. NP 014051.3) and 0.3 milligrams per milliliter (mg/mL) bovine serum albumin (BSA) in AbPPDC assay buffer (50 mM 3-(N-morpholino)propanesulfonic acid, pH 6.8, containing 2.5 mM magnesium chloride (MgCl2)) at 30° C. The reaction is started by addition at 30° C. of working enzyme stock containing from 0.5 μg to 3.5 μg of AbPPDC variant diluted in AbPPDC assay buffer containing 1 mg/mL BSA. The plate containing the 200 μL of reaction mixture is centrifuged at 2500×g for 15 sec and the absorbance change of the reaction mixture followed spectrophotometrically at 340 nm on a BioTek™ plate reader, pre-equilibrated at 30° C. Initial velocity of the enzyme reaction is calculated using the rate of NADPH consumption at 340 nm and the extinction coefficient of NADPH (6.22 mM^−1 cm^−1). The activity of all the variants is normalized with the amount of enzyme present in the reaction mixture and expressed as nanomoles per minute per milligram (nmol·min^−1·mg^−1). Protein concentrations for normalizing the activities are determined using the 660 nm total protein assay kit from Pierce Biotechnology Inc., available from Thermo Fisher Scientific, Inc., using BSA as the standard.
(§7) The kinetic parameters of the decarboxylation of 2-ketooctanoate (2-KO) and 2-ketononanoate (2-KN) by AbPPDC and its variants are also determined using the same HTP AbPPDC coupled enzyme assay, except that the concentrations of 2-KO or 2-KN are varied from 0 to 4 mM. […]

Substrate in series [7]: CCCCCCC(=O)C(=O)O
Described as above. The format is biochemical, Azospirillum brasilense. Conditions: other: pH 6.8, 30° C, 2-ketoacid 0 to 4 mM, Hill equation, mean ± standard error. Here is the method:
as §1, §2, §4, §6, §7

Substrate in series [8]: CCCCCCCC(=O)C(=O)O
Description: HTP AbPPDC coupled enzyme assay (ADH6/NADPH), 2-ketoacid decarboxylation kinetics, M461L. The class given is biochemical, Azospirillum brasilense. Conditions: other: pH 6.8, 30° C, 2-ketoacid 0 to 4 mM, Hill equation, mean ± standard error. How it is done: as §1, §2, §3, §4, §5

Substrate in series [9]: CCCCCCC(=O)C(=O)O
The series is described as above. Conditions: other: pH 6.8, 30° C, 2-ketoacid 0 to 4 mM, Hill equation, mean ± standard error. The format is biochemical, Azospirillum brasilense. Here is the method:
as §1, §2, §3, §4, §5

Regarding `O=C(O)C(=O)Cc1ccccc1` [phenylpyruvic acid], the catalytic efficiency entry in series [1] is given as “high catalytic efficiencies”.

B1: Azospirillum brasilense phenylpyruvate decarboxylase (AbPPDC) variant Q536I, SEQ ID 38 (Azospirillum brasilense; Q536I) (protein)
chain: MKLAEALLRALKDRGAQAMFGIPGDFALPFFKVAEETQILPLHTLSHEPAVGFAADAAARYSSTLGVAAVTYGAGAFNMVNAVAGAYAEKSPVVVISGAPGTTEGNAGLLLHHQGRTLDTQFQVFKEITVAQARLDDPAKAPAEIARVLGAARALSRPVYLEIPRNMVNAEVEPVGDDPAWPVDRDALAACADEVLAAMRSATSPVLMVCVEVRRYGLEAKVAELAQRLGVPVVTTFMGRGLLADAPTPPLGTYIGVAGDAEITRLVEESDGLFLLGAILSDTNFAVSQRKIDLRKTIHAFDRAVTLGYHTYADIPLAGLVDALLEGLPPSDRTTRGKEPHAYPTGLQADGEPIAPMDIARAVNDRVRAGQEPLLIAADMGDCLFTAMDMIDAGLMAPGYYAGMGFGVPAGIGAQCVSGGKRILTVVGDGAFQMTGWELGNCRRLGIDPIVILFNNASWEMLRTFQPESAFNDLDDWRFADMAAGMGGDGVRVRTRAELKAALDKAFATRGRFQLIEAMIPRGVLSDTLARFVQGIKRLHAAPRE
notes: made in house; host or cells: E. coli BL21(DE3)
As to B1, in series [2], the K0.5 is reported as 0.69 ± 0.09 mM, the kcat was found to be 1.05 ± 0.05 s⁻¹ and the kcat/Km stood at 1530 ± 217 M⁻¹ s⁻¹. In addition, in series [3], the K0.5 is given as 0.71 ± 0.07 mM, the kcat came out at 0.533 ± 0.0183 s⁻¹ and the kcat/Km stood at 750 ± 83 M⁻¹ s⁻¹.

B2: Azospirillum brasilense phenylpyruvate decarboxylase (AbPPDC) variant F385L, SEQ ID 8 (Azospirillum brasilense; F385L) (protein)
chain: B1 chain with F385L, I536Q
notes: as for B1
On to B2, for which, in [4], the K0.5 came to 2.39 ± 0.26 mM, the kcat came to 0.283 ± 0.017 s⁻¹ and the kcat/Km was 117 ± 16.7 M⁻¹ s⁻¹. Moreover, in series [5], the K0.5 stood at 2.3 ± 0.5 mM, the kcat was 0.0283 ± 0.005 s⁻¹ and the kcat/Km came out at 13 ± 3.3 M⁻¹ s⁻¹.

B3: Azospirillum brasilense phenylpyruvate decarboxylase (AbPPDC), wild type, SEQ ID 4 (GenBank L26240), 13-amino acid N-terminal histidine tag (Azospirillum … (protein)
chain: B1 chain with I536Q
notes: as for B1
As to B3, in [6], the K0.5 came to 1.23 ± 0.02 mM, the kcat amounted to 0.333 ± 0 s⁻¹ and the kcat/Km came out at 270 ± 6.7 M⁻¹ s⁻¹. For the same molecule, in series [7], the K0.5 came to 1.7 ± 0.1 mM, the kcat was found to be 0.25 ± 0.012 s⁻¹ and the kcat/Km came to 150 ± 12 M⁻¹ s⁻¹.

B4: Azospirillum brasilense phenylpyruvate decarboxylase (AbPPDC) variant M461L, SEQ ID 18 (Azospirillum brasilense; M461L) (protein)
chain: B1 chain with M461L, I536Q
notes: as for B1
B4: in [8], the K0.5 worked out at 0.97 ± 0.04 mM, the kcat stood at 0.467 ± 0.017 s⁻¹ and the kcat/Km stood at 483 ± 23.3 M⁻¹ s⁻¹. In series [9], the K0.5 was found to be 1.4 ± 0.1 mM, the catalytic constant (kcat) stood at 0.2 ± 0.0083 s⁻¹ and the kcat/Km is 148 ± 12 M⁻¹ s⁻¹.
